Results published in the supplement of paper PMC10567573.

B1: BRF1 (parent)
chain: FVESSGGGSSAVGQFVSLDGAGKT

Variants of: B1
Test: protein stability index of a GFP-peptide fusion (GPS, HEK-293T) (PSI 1-6); higher = more stable
Conditions: c terminus: a fixed tail appended
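Note: lentivirally expressed fusions sorted by FACS into six bins by GFP to DsRed ratio, PSI derived from sequencing read proportions per bin multiplied by bin number.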

Variant	protein stability index
FVCSSGGGSSAVGQFVSLDGAGKT [E3C]	1.88
FVDSSGGGSSAVGQFVSLDGAGKT [E3D]	1.97
FVHSSGGGSSAVGQFVSLDGAGKT [E3H]	2.01
FVISSGGGSSAVGQFVSLDGAGKT [E3I]	2.62
FVLSSGGGSSAVGQFVSLDGAGKT [E3L]	1.17
FVMSSGGGSSAVGQFVSLDGAGKT [E3M]	2.71
FVNSSGGGSSAVGQFVSLDGAGKT [E3N]	1.75
FVQSSGGGSSAVGQFVSLDGAGKT [E3Q]	1.78
FVRSSGGGSSAVGQFVSLDGAGKT [E3R]	3.14
FVSSSGGGSSAVGQFVSLDGAGKT [E3S]	1.33
FVTSSGGGSSAVGQFVSLDGAGKT [E3T]	1.43
FVVSSGGGSSAVGQFVSLDGAGKT [E3V]	3.03
FVWSSGGGSSAVGQFVSLDGAGKT [E3W]	3.35
FVEASGGGSSAVGQFVSLDGAGKT [S4A]	1.97
FVECSGGGSSAVGQFVSLDGAGKT [S4C]	3.2
FVEDSGGGSSAVGQFVSLDGAGKT [S4D]	2.49
FVEESGGGSSAVGQFVSLDGAGKT [S4E]	3.28
FVEFSGGGSSAVGQFVSLDGAGKT [S4F]	2.01
FVEGSGGGSSAVGQFVSLDGAGKT [S4G]	2.81
FVEHSGGGSSAVGQFVSLDGAGKT [S4H]	2.57
FVEISGGGSSAVGQFVSLDGAGKT [S4I]	1.86
FVEKSGGGSSAVGQFVSLDGAGKT [S4K]	2.63
FVELSGGGSSAVGQFVSLDGAGKT [S4L]	1.51
FVEMSGGGSSAVGQFVSLDGAGKT [S4M]	1.08

Variant	protein stability index
FVENSGGGSSAVGQFVSLDGAGKT [S4N]	2.62
FVEPSGGGSSAVGQFVSLDGAGKT [S4P]	2.67
FVEQSGGGSSAVGQFVSLDGAGKT [S4Q]	2.72
FVERSGGGSSAVGQFVSLDGAGKT [S4R]	2.42
FVETSGGGSSAVGQFVSLDGAGKT [S4T]	2.29
FVEVSGGGSSAVGQFVSLDGAGKT [S4V]	2.54
FVEWSGGGSSAVGQFVSLDGAGKT [S4W]	2.63
FVEYSGGGSSAVGQFVSLDGAGKT [S4Y]	1.3
FVESAGGGSSAVGQFVSLDGAGKT [S5A]	2.57
FVESCGGGSSAVGQFVSLDGAGKT [S5C]	2.03
FVESDGGGSSAVGQFVSLDGAGKT [S5D]	3.37
FVESEGGGSSAVGQFVSLDGAGKT [S5E]	3.68
FVESFGGGSSAVGQFVSLDGAGKT [S5F]	3
FVESGGGGSSAVGQFVSLDGAGKT [S5G]	2.19
FVESHGGGSSAVGQFVSLDGAGKT [S5H]	1.81
FVESIGGGSSAVGQFVSLDGAGKT [S5I]	2.24
FVESKGGGSSAVGQFVSLDGAGKT [S5K]	2.58
FVESLGGGSSAVGQFVSLDGAGKT [S5L]	1.36
FVESMGGGSSAVGQFVSLDGAGKT [S5M]	1.75
FVESNGGGSSAVGQFVSLDGAGKT [S5N]	2.65
FVESPGGGSSAVGQFVSLDGAGKT [S5P]	2.01
FVESQGGGSSAVGQFVSLDGAGKT [S5Q]	2.71
FVESRGGGSSAVGQFVSLDGAGKT [S5R]	1.92
FVESTGGGSSAVGQFVSLDGAGKT [S5T]	2.62

Variant	protein stability index
FVESVGGGSSAVGQFVSLDGAGKT [S5V]	1.75
FVESYGGGSSAVGQFVSLDGAGKT [S5Y]	1.53
FVESSAGGSSAVGQFVSLDGAGKT [G6A]	2.37
FVESSCGGSSAVGQFVSLDGAGKT [G6C]	1.97
FVESSDGGSSAVGQFVSLDGAGKT [G6D]	2.96
FVESSEGGSSAVGQFVSLDGAGKT [G6E]	2.94
FVESSFGGSSAVGQFVSLDGAGKT [G6F]	1.45
FVESSHGGSSAVGQFVSLDGAGKT [G6H]	1.74
FVESSIGGSSAVGQFVSLDGAGKT [G6I]	1.49
FVESSKGGSSAVGQFVSLDGAGKT [G6K]	2.3
FVESSLGGSSAVGQFVSLDGAGKT [G6L]	1.97
FVESSMGGSSAVGQFVSLDGAGKT [G6M]	1.76
FVESSNGGSSAVGQFVSLDGAGKT [G6N]	1.89
FVESSPGGSSAVGQFVSLDGAGKT [G6P]	2.23
FVESSQGGSSAVGQFVSLDGAGKT [G6Q]	2.66
FVESSRGGSSAVGQFVSLDGAGKT [G6R]	2.27
FVESSSGGSSAVGQFVSLDGAGKT [G6S]	2.7
FVESSTGGSSAVGQFVSLDGAGKT [G6T]	2.53
FVESSVGGSSAVGQFVSLDGAGKT [G6V]	2.18
FVESSWGGSSAVGQFVSLDGAGKT [G6W]	2.5
FVESSYGGSSAVGQFVSLDGAGKT [G6Y]	2.45
FVESSGAGSSAVGQFVSLDGAGKT [G7A]	2.86
FVESSGCGSSAVGQFVSLDGAGKT [G7C]	2.31
FVESSGDGSSAVGQFVSLDGAGKT [G7D]	3.52

Variant	protein stability index
FVESSGEGSSAVGQFVSLDGAGKT [G7E]	3.02
FVESSGFGSSAVGQFVSLDGAGKT [G7F]	2.93
FVESSGHGSSAVGQFVSLDGAGKT [G7H]	1.68
FVESSGIGSSAVGQFVSLDGAGKT [G7I]	1.81
FVESSGKGSSAVGQFVSLDGAGKT [G7K]	2.09
FVESSGLGSSAVGQFVSLDGAGKT [G7L]	1.52
FVESSGMGSSAVGQFVSLDGAGKT [G7M]	2.05
FVESSGNGSSAVGQFVSLDGAGKT [G7N]	2.26
FVESSGPGSSAVGQFVSLDGAGKT [G7P]	2.34
FVESSGQGSSAVGQFVSLDGAGKT [G7Q]	2.26
FVESSGRGSSAVGQFVSLDGAGKT [G7R]	1.38
FVESSGSGSSAVGQFVSLDGAGKT [G7S]	1.78
FVESSGTGSSAVGQFVSLDGAGKT [G7T]	2.38
FVESSGVGSSAVGQFVSLDGAGKT [G7V]	1.61
FVESSGWGSSAVGQFVSLDGAGKT [G7W]	2.54
FVESSGGASSAVGQFVSLDGAGKT [G8A]	2.36
FVESSGGCSSAVGQFVSLDGAGKT [G8C]	1.95
FVESSGGDSSAVGQFVSLDGAGKT [G8D]	2.44
FVESSGGESSAVGQFVSLDGAGKT [G8E]	3.31
FVESSGGFSSAVGQFVSLDGAGKT [G8F]	1.69
FVESSGGHSSAVGQFVSLDGAGKT [G8H]	1.51
FVESSGGISSAVGQFVSLDGAGKT [G8I]	1.84
